Reference: patent US20250136696A1 (HARBOUR BIOMED SHANGHAI, published 2025)

T1: biotinylated human B7-H7 protein (Acro Biosystems, B77-H82F5) (human, UniProt Q9UM44 23-344, biotinylated)
T1 construct: Bought soluble protein; also called biotin-B7H7 protein
T1 sequence (looked up): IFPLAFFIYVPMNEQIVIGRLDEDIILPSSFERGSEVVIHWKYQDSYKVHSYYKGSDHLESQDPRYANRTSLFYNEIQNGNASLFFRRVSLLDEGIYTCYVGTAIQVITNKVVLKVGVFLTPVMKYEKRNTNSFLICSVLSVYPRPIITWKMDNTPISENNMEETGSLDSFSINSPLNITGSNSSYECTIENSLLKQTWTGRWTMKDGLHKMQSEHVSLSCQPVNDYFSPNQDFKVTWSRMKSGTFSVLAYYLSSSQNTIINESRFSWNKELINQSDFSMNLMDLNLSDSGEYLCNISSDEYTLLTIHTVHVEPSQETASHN

T2: human B7-H7 on the cell surface (human, UniProt Q9UM44 23-414)
T2 construct: whole, on cells; also called hB7-H7; hu B7-H7
T2 sequence (looked up): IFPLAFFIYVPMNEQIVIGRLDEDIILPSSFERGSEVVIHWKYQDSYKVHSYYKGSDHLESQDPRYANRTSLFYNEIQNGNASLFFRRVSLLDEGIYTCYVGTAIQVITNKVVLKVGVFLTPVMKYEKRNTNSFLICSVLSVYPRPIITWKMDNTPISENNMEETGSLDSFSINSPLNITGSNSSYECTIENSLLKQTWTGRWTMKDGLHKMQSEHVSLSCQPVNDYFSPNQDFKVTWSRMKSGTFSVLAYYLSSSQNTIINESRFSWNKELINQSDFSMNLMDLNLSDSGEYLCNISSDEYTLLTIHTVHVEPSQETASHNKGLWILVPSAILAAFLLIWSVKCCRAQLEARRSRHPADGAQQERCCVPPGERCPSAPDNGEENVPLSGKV


Legend:
[1] = biological target: T1, biotinylated human B7-H7 protein (Acro …); test: flow cytometry, blocking of biotinylated human B7-H7 binding to HEK-293/CD28H cells
Procedure: This example was intended to study the in vitro blocking activity of human anti-B7-H7 antibodies against the binding of human B7-H7 to its receptor CD28H. […] The cells were adjusted to a cell density of 1×10⁶ cells/mL. […] The cells were incubated at 4° C. for 1 hour in the dark. […] The cells were rinsed twice by adding pre-chilled PBS containing 2% BSA at 100 μL/well, and were centrifuged at 500 g at 4° C. for 5 minutes, and the supernatant was discarded. A fluorescent secondary antibody (PE Streptavidin, BD, Cat #: 554061, 1:200) was added at 100 μL/well, and the cells were incubated at 4° C. for 30 minutes in the dark. The cells were washed twice by adding pre-chilled PBS at 200 μL/well, and centrifuged at 500 g at 4° C. for 5 minutes, and the supernatant was discarded. Finally, the cells were resuspended in pre-chilled PBS at 200 μL/well, and the fluorescence signal values were read using an ACEA Novocyte3000 flow cytometer. IC50 was calculated.

[2] = biological target: T1, biotinylated human B7-H7 protein (Acro …); test: BLI epitope competition on SA-captured biotinylated B7-H7; competitor (first antibody) PR003251
Procedure: Epitope competition experiments were performed on the anti-B7-H7 antibodies using the ForteBio Octet Red96e platform with the same experimental buffer as described above. […] After being equilibrated in a buffer for 120 s, the sensors were immersed in various antibodies diluted to 100 nM for 240 s, and the final signal of the antibody binding to B7-H7 was recorded as the 100% signal for that antibody. Second step, epitope competition experiment: B7-H7 was captured using SA sensors at a capture height of 0.25 nm. The sensors were immersed in a first antibody (concentration: 100 nM) for 240 s, then the SA sensors were immersed in a mixture of the first antibody and a second antibody (final concentration of both antibodies: 100 nM) for 240 s, and the difference in signals before and after immersing the sensors in the mixture of the two antibodies was recorded as the signal for that antibody as the second antibody. The inhibition rate was calculated by the following equation, […]

[3] = biological target: T2, human B7-H7 on the cell surface; test: flow cytometry, HCC827 cells
Procedure: (§1) This example was intended to study the in vitro activity of H2L2 monoclonal antibodies against human B7-H7 in binding to human/cynomolgus monkey B7-H7. Since homologous molecules of B7-H7 were not present in mice, the detection was not performed. […] The cells were adjusted to a cell density of 1×10⁶ cells/mL, respectively. The cells were seeded in a 96-well V-bottom plate (Corning, #3894) at 100 μL/well, and the antibody to be tested at 2× final concentration with 3-fold concentration gradient dilution was then added at 100 μL/well. The cells were incubated at 4° C. for 2 hours in the dark. After the incubation, the cells were rinsed twice by adding pre-chilled PBS containing 2% BSA at 100 μl/well, and centrifuged at 500 g at 4° C. for 5 minutes, and the supernatant was discarded. […] The cells were washed twice by adding pre-chilled PBS containing 2% BSA at 100 μL/well, and centrifuged at 500 g at 4° C. for 5 minutes, and the supernatant was discarded. Finally, the cells were resuspended in pre-chilled PBS containing 2% BSA at 200 μL/well, and the fluorescence signal values were read using an ACEA Novocyte3000 flow cytometer.

[4] = biological target: T3, cynomolgus monkey B7-H7 on the cell surface (cynomolgus monkey); test: flow cytometry, HEK-293/cyno B7-H7 cells
T3 construct: whole, on cells; also called cyno B7-H7
Procedure: as §1

[5] = biological target: T2, human B7-H7 on the cell surface; test: flow cytometry, LS180 cells
Procedure: as §1

| IC50 [1] | Maximum inhibition rate (%) [1] | Competitive inhibition rate (%) [2] | EC50 [3] | Maximum MFI [3] | EC50 [4] | Maximum MFI [4] | EC50 [5] | Maximum MFI [5] | Binder |
| --- | --- | --- | --- | --- | --- | --- | --- | --- | --- |
| 2.47 nM | 20.4% | 100% | 0.0439 nM | 53300 MFI | 0.588 nM | 447000 MFI |  |  | PR003260 (antibody, human IgG1, kappa, V domains shown, Human IgG1; also called 70F3B1) VH: QVQLVESGGGVVQPGRSLRLPCAASGFTFSRYGMHWVRQAPGKGLEWVADIWYDGSKKYYADSVKGRFTISRDNSKNTLYLQMNSLRAEDTAVYFCTRDGGYSYGPFDYWGQGTLVTVSS VL: EIVMTQSPATLSVSPGERATLSCRASQSVSSNLAWYQQKPGQAPRLLIYYASTRAPGIPARFSGSESGTEFTLTISSLQSEDFAVYYCQQYNIWPYTFGQGTKLEIKR |
| 1.7 nM | 59.3% | 96.9% | 0.0789 nM | 53200 MFI | 0.556 nM | 410000 MFI |  |  | PR003263 (antibody, human IgG1, kappa, V domains shown, Human IgG1; also called 77E6C4) VH: QVQLVESGGGVVQPGRSLRLSCAASGFTFSYYGLNWVRQAPGKGLEWVAVIWFDGTNKYYADSVKGRFTISRDDSKNTLYLQMNSLRAEDTAVYYCARGYGSGSYYNYVMDAWGQGASVTVSS VL: EIVMTQSPATLSVSPGERATLSCRASQSVSSNLAWYQQKPGQAPRLLIYGASTGATGIPARFSGSGSGTDFTLTISSLQSEDFAVYYCQQYYKWPLTFGGGTKVEIKR |
| 1.24 nM | 16.2% | 97.9% | 0.0373 nM | 53300 MFI | 0.522 nM | 430000 MFI |  |  | PR003251 (antibody, human IgG1, kappa, V domains shown, Human IgG1; also called 29F2C8) VH: QVQLVESGGGVVQPGRSLRLSCAVSGFTFSRYGMHWVRQAPGKGLDWVAVIWYNGNNKYYTDSVKGRFTISRDNSKNTLFLQMNSLRAEDTAVYYCARDGAYSYGPFDYWGQGTLVTVSS VL: not shown |
| 1.59 nM | 27.4% | 99.1% | 0.192 nM | 45900 MFI | 1.24 nM | 389000 MFI |  |  | PR003254 (antibody, human IgG1, kappa, V domains shown, Human IgG1; also called 59D6D2) VH: QVQLVESGGGVVQPGRSLRLSCAASGFTFSSYGMHWVRQAPGKGLEWVADIWYNGNNKYYADSVKGRFTISRDNSKNTLYLQMNSLRAEDTALYYCARDGGYSYGPFDYWGQGTLVTVSS VL: not shown |
| 3.37 nM | 26.4% | 96.4% | 0.041 nM | 54000 MFI | 0.59 nM | 419000 MFI |  |  | PR003262 (antibody, human IgG1, kappa, V domains shown, Human IgG1; also called 77D5A4) VH: QVQLVESGGGVVQPGRSLRLSCAASGFTFSRYGIHWVRQAPGKGLEWVAVIWYNGRNKYYVDSVKGRFTISRDNSKNTLYLQMNSLRAEDTAVYYCARDGGYSYGPFDYWGQGTLVTVSS VL: EIVMTQSPATLSVSPGERATLSCRASQSFSNNLAWYQQKPGQAPRLLIYGASTRATGIPARFSGSGSGTEFTLTISSLQSEDFAVYYCHQYNIWPLTFGGGTKVEIKR |
| 1.52 nM | 101% |  | 0.618 nM | 57000 MFI | 0.829 nM | 290000 MFI | 2.2 nM | 21800 MFI | PR003264 (antibody, human IgG1, kappa, Human IgG1; also called 77G10D3) heavy: not shown light: DIQLTQSPSFLSASVGDRVTITCRASQGISSYFAWYQQKPGKAPKLLIYAASTLQSGVPSRFSGSGSGTEFTLTISSLQPEDFATYYCQHLNRYPWTFGQGTKVEIKRTVAAPSVFIFPPSDEQLKSGTASVVCLLNNFYPREAKVQWKVDNALQSGNSQESVTEQDSKDSTYSLSSTLTLSKADYEKHKVYACEVTHQGLSSPVTKSFNRGEC |
|  |  |  |  |  |  |  | 3.08 nM | 24000 MFI | PR004263 (antibody, human IgG1, kappa, L234A L235A, Variant of PR003264; Human IgG1 with LALA mutation in Fc) heavy: not shown light: DIQLTQSPSFLSASVGDRVTITCRASQGISSYFAWYQQKPGKAPKLLIYAASTLQSGVPSRFSGSGSGTEFTLTISSLQPEDFATYYCQHLNRYPWTFGQGTKVEIKRTVAAPSVFIFPPSDEQLKSGTASVVCLLNNFYPREAKVQWKVDNALQSGNSQESVTEQDSKDSTYSLSSTLTLSKADYEKHKVYACEVTHQGLSSPVTKSFNRGEC |
